Experimental data as given in paper doi:10.1101/2024.09.16.613335, “Structure-guided assembly of an influenza spike nanobicelle vaccine provides pan H1 intranasal protection” (bioRxiv, 2024).

Target: the molecule itself
Experiment: cryo-EM structure

B1: hemagglutinin (HA) spike on spiked nanobicelles (SNB) purified from the Fluad vaccine (natural protein)
chain: not shown
stoichiometry N: 3
